{
  "source": "patent US8507446B2",
  "about": "“Use of PEDF-derived polypeptides for treating liver cirrhosis” (MacKay Memorial Hospital, priority 2011, dated 2013)",
  "key": {"[1]": {"tested_on": "culture-activated primary rat HSCs", "assay": "Activation of culture-activated primary hepatic stellate cells", "format": "cell-based", "experimental": "Primary HSCs were isolated by in situ perfusion with collagenase and pronase from livers of male Sprague-Dawley rats (300-450 g), followed by a 25%/50% Percoll gradient centrifugation at 4° C. HSCs were isolated from the upper layer of the discontinuous Percoll density gradient as previously described method (Titos et al., FASEB J 2003 17:1745-1747). Then cells were re-suspended in Dulbecco's modified Eagle's medium (DMEM) supplemented with 10% fetal bovine serum (FBS) and 1% penicillin/streptomycin and plated on 100-mm plastic dishes. Cell purity was verified to be approximately 95-98% by vitamin A fluorescence on day 2 after isolation. HSCs were activated by culturing the cells on plastic for 10 days and then passaged by trypsin-EDTA treatment. Subsequently, the activated HSCs were incubated in 10% FBS-DMEM for 2 days and then used for further experiments.\n(§1) Deparaffinized liver tissue sections or 4% paraformaldehyde fixed HSCs were blocked with 10% goat serum and 5% BSA for 1 h. Dual staining was done using primary antibodies against human PEDF (se-59641; Santa Cruz Biotechnology, CA, USA) or α-SMA (ab5694 or ab7817; Abcam), PPARγ (sc-7273; Santa Cruz Biotechnology), albumin (sc-46295; Santa Cruz Biotechnology) or cytokeratin (CK) 18 (GTX112978; GeneTex, Inc.) at 37° C. for 2 h, followed by incubation with the appropriate rhodamine- or FITC-conjugated donkey IgG for 1 hr at room temperature. Nuclei were located by counterstaining with Hoechst 33258 for 7 min. Images were captured using a Zeiss epifluorescence microscope with a CCD camera.\n(§2) Cells were scraped into lysis buffer (150 μL/35-mm well) containing 20 mM HEPES (pH 7.4), 1% SDS, 150 mM NaCl, 1 mM EGTA, 5 mM β-glycerophosphate, 10 mM sodium pyrophosphate, 10 mM sodium fluoride, […] sodium orthovanadate, 10 μg/mL leupeptin, and 10 μg/mL aprotinin. The lysate was incubated on ice for 15 min. Total cell lysate was also separated into cytoplasmic and nuclear fractions using the NE-PER nuclear and cytoplasmic extraction kit (Pierce, Rockford, Ill.) according to the manufacturer's instructions. Each cellular fraction was then resolved by SDS-PAGE and then electrotransferred to polyvinylidene difluoride membranes (Millipore, Bedford, Mass.) and processed for immunoblot analysis. Antibodies used in the immunoblot study included human PEDF (sc-59641; Santa Cruz Biotechnology), mouse PEDF (sc-74253; Santa Cruz Biotechnology), type I collagen 1A1 (sc-25974; Santa Cruz Biotechnology), α-SMA (ab5694 or ab7817; Abcam), PPARγ••(sc-7273; Santa Cruz Biotechnology), MCP-1 (ab7202; Abcam Ltd), α-actin (Sigma), epithelial cell adhesion molecule (EpCAM; sc-66020; Santa Cruz Biotechnology), hepatocytes nuclear factor and (HVF)3-β (sc-6554; Santa Cruz Biotechnology). Proteins of interest were detected using the appropriate IgG-HRP secondary antibody and ECL reagent. X-ray films were scanned on a Model GS-700 Imaging Densitometer (Bio-Rad Laboratories, Hercules, Calif.) and analyzed using Labworks 4.0 software. For quantification, blots from at least three independent experiments were used.\nAfter treatment, primary rat HSCs were fixed for 2 h with 4% paraformaldehyde, washed by PBS and then permeabilized for 5 min with 0.1% Triton X-100. Changes in F-actin structures were detected by […] rhodamine-conjugated phalloidin (Sigma) for 1 h at room temperature. Stained F-actin was visualized using a Zeiss Axiovert 25 microscope.\nTo verify whether the PEDF-derived peptides, particularly, 34-mer PEDF and 44-mer PEDF, may prevent HSCs from activation, culture-activated primary rat HSCs were treated with 4.5 nM PEDF, 50 nM 44-mer, 50 nM 34-mer or PEDF solvent (20 mM Tris/HCl, pH 7.4, 100 mM NaCl) for 48 hours. […] Immunofluorescent assay also confirmed that 34-mer PEDF reduced the levels of α-SMA in culture-activated HSCs as compared with 44-mer PEDF treatment (FIG. 6F). Such result is consistent with the finding in Example 1 that PEDF prevents HSCs from activation by induction of PPARγ."}, "[2]": {"tested_on": "liver-derived progenitor cells (LDPCs)", "assay": "Self-renewal of LDPCs over two passages and differentiation into hepatocytes", "format": "cell-based, rat", "experimental": "Liver cells from Sprague Dawley rats were harvested by 2-step in situ collagenase perfusion technique. The cells were then washed in phosphate buffered saline and centrifuged (50 g for 5 minutes) twice at room temperature. The cells were not further subjected to any fractionation as previously described (Sahin M B et al., Liver Transpl. 2008 14(3):333-45). Freshly isolated rat liver cells were cultured in a medium consisting of 75% Dulbecco's modified Eagle's medium (DMEM) and 25% MCDB 201 (Sigma-Aldrich) supplemented with 10% fetal bovine serum, 1 mg/mL of bovine serum albumin (BSA; Sigma), 100 μM of β-mercaptoethanol (Gibco, Carlsbad, Calif.), 25 mM of 4-2-hydroxyethyl-1-piperazineethanesulfonic acid (HEPES), 5 mM of Nicotinamide (Sigma-Aldrich), 1% SITE liquid medium (Sigma-Aldrich), and penicillin (100 μg/ml)/streptomycin (100 μg/ml; Invitrogen, Carlsbad, Calif.) on Type I collagen (Sigma, St. Louis, Mo.) coated tissue culture plates or dishes at a density of 1×10^4 cells/cm^2 at 37° C. in 5% CO2.\nas §1, §2\nIt has been reported that LDPCs may not be expanded in conventional basal medium, unless growth factor(s) were added therein (Sahin et al., Liver Transpl. 2008 14(3):333-45). To test the self-renewal property of PEDF derived peptides on LDPCs, liver cells were isolated and grown in separate medium including 4.5 nM (200 ng/ml) PEDF, 50 nM 34-mer or 50 nM 44-mer for two passages, which took a period of 35 days. The newly produced LDPCs in the cultured cells were confirmed by the detection of autofluorescence emitted therefrom; as well as two LDPC markers, which are epithelial cell adhesion molecule (EpCAM) and hepatocytes nuclear factor 3•••(HNF3)-β, by immunoblot analysis. […]"}, "[3]": {"conditions": "48 hours vs solvent, 4.5 nM PEDF, 50 nM 34-mer, 50 nM 44-mer"}},
  "data": [
    {"molecule": "pigment-epithelium-derived factor (protein, UniProt P36955 20-418, looked up, pigment-epithelium-derived factor protein, used at 4.5 nM (200 ng/ml)) Pigment epithelium-derived …: QNPASPPEEGSPDPDSTGALVEEEDPFFKVPVNKLAAAVSNFGYDLYRVRSSTSPTTNVLLSPLSVATALSALSLGAEQRTESIIHRALYYDLISSPDIHGTYKELLDTVTAPQKNLKSASRIVFEKKLRIKSSFVAPLEKSYGTRPRVLTGNPRLDLQEINNWVQAQMKGKLARSTKEIPDEISILLLGVAHFKGQWVTKFDSRKTSLEDFYLDEERTVRVPMMSDPKAVLRYGLDSDLSCKIAQLPLTGSMSIIFFLPLKVTQNLTLIEESLTSEFIHDIDRELKTVQAVLTVPKLKLSYEGEVTKSLQEMKLQSLFDSPDFSKITGKPIKLTQVEHRAGFEWNEDGAGTTPSPGLQPAHLTFPLDYHLNQPFIFVLRDTDTGALLFIGKILDPRGP", "values": [
      {"measurement": "Col1a1 expression (immunoblot)", "setting": "[1]; [3]", "result": "significantly reduced"},
      {"measurement": "MCP-1 expression (immunoblot)", "setting": "[1]; [3]", "result": "significantly reduced"},
      {"measurement": "amounts of PPARγ (immunoblot)", "setting": "[1]; [3]", "result": "enhanced"},
      {"measurement": "α-SMA expression (immunoblot)", "setting": "[1]; [3]", "result": "significantly reduced"},
      {"measurement": "stress fiber (F-actin, rhodamine-phalloidin staining)", "setting": "[1]; culture-activated HSCs", "result": "reduced"},
      {"measurement": "α-SMA by immunofluorescent staining", "setting": "[1]; culture-activated HSCs, 34-mer compared with 44-mer PEDF treatment", "result": "reduced"},
      {"measurement": "HSC morphology", "setting": "[1]; culture-activated HSCs, phase contrast / immunofluorescence", "result": "dendritic-like morphology with retracted cytoplasm"},
      {"measurement": "autofluorescence (LDPC marker)", "setting": "[2]; 4.5 nM PEDF, 50 nM 34-mer or 50 nM 44-mer, two passages, 35 days", "result": "emitted autofluorescence"},
      {"measurement": "ability of expanded LDPCs to differentiate into hepatocytes (albumin and CK-18 staining)", "setting": "[2]; immunofluorescence", "result": "retain the ability of differentiating into hepatocyte"},
      {"measurement": "self-renewal by expression of LDPC markers EpCAM and HNF3-β (immunoblot)", "setting": "[2]; two passages, 35 days", "result": "exhibits self-renewal property"}
    ]}
  ]
}
